In article PMC3177148 (Molecular microbiology, 2011):
Positions count from the first letter of the chain named. In names and notes the source's numbering stands.

What was measured:
MacB = MacB (Escherichia coli, UniProt P75831); experiment: limited proteolysis protection; format: binding; details: 1 mM Mg-AMPPNP, loaded on ice, proteolysis at 37°C
[1] = molecular target: T1, MacB with C-terminal 6His tag, purified and reconstituted into proteoliposomes (E. coli, UniProt P75831 1-648); experiment: limited proteolysis of proteoliposomes
T1 sequence: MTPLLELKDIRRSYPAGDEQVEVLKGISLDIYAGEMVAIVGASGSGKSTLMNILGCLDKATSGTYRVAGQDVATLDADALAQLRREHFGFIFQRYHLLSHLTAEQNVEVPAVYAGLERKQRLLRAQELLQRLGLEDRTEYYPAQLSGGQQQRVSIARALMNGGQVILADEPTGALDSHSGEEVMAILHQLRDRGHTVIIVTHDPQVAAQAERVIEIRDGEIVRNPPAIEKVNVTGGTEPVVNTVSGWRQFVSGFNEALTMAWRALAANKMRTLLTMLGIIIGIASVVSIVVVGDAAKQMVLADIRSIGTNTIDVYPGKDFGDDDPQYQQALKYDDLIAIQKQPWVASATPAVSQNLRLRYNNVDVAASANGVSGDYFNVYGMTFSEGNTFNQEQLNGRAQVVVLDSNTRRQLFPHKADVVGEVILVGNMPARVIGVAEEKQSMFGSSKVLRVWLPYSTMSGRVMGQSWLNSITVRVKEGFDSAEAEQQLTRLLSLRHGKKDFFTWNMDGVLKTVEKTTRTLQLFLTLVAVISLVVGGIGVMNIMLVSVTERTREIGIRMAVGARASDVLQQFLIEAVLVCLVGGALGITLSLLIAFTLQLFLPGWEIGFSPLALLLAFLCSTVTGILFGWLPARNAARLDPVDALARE

cross-linking = molecular target: the molecule itself; experiment: cross-linking

`Nc1ncnc2c1ncn2[C@@H]1O[C@H](COP(=O)(O)OP(=O)(O)NP(=O)(O)O)[C@@H](O)[C@H]1O` [AMPPNP] was tested, and the “limited proteolysis protection (proteinase K) in proteoliposomes, anti-MacB immu” value (MacB) was “MacB alone binds ATP and AMPPNP”.

B1: MacA wild type with C-terminal 6His tag, purified (natural protein)
chain: MKKRKTVKKRYVIALVIVIAGLITLWRILNAPVPTYQTLIVRPGDLQQSVLATGKLDALRKVDVGAQVSGQLKTLSVAIGDKVKKDQLLGVIDPEQAENQIKEVEATLMELRAQRQQAEAELKLARVTYSRQQRLAQTKAVSQQDLDTAATEMAVKQAQIGTIDAQIKRNQASLDTAKTNLDYTRIVAPMAGEVTQITTLQGQTVIAAQQAPNILTLADMSAMLVKAQVSEADVIHLKPGQKAWFTVLGDPLTRYEGQIKDVLPTPEKVNDAIFYYARFEVPNPNGLLRLDMTAQVHIQLTDVKNVLTIPLSALGDPVGDNRYKVKLLRNGETREREVTIGARNDTDVEIVKGLEAGDEVVIGEAKPGAAQ
B1: binds [1]; binds (cross-linking).

B2: MacA G357A with C-terminal 6His tag, purified (natural protein)
chain: B1 chain with G357A
B2: binds (cross-linking).

B3: MacA G353A with C-terminal 6His tag, purified (natural protein)
chain: B1 chain with G353A
B3: binds (cross-linking).
